Consider 6 molecules from patent US20170355774A1 (Regeneron, published 2017).

The target in assay [1] is T1, human GITR (amino acids M1-V241, NCBI Accession #NP_004186.1) expressed on cells (human, UniProt Q9Y5U5 26-241).
T1 construct: also called hGITR; hGITR/HEK293-D9
T1 sequence: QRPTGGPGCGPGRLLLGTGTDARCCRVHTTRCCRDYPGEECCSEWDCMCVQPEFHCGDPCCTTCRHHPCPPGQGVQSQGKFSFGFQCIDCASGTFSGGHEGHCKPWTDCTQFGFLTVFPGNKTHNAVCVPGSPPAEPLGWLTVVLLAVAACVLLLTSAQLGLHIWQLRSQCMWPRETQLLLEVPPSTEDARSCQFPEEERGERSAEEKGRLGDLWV
The assay can be described thus: ECL cell binding, hGITR/HEK293-D9. Here is the method: Nonspecific binding sites were blocked with 2% BSA (w/v)+PBS for 1 h at room temperature (RT). Next, serial dilutions of anti-GITR antibodies, ranging from 1.7 pM to 100 nM, were added to cells for 1 h at RT. Plates were then washed to remove unbound antibodies (AquaMax2000 plate washer, MSD Analytical Technologies) and plate-bound antibodies were detected with a SULFO-TAG™ conjugated anti-human kappa light chain IgG antibody (Jackson Immunoresearch) for 1 h at RT.
Following washes, luminescent signals were recorded with a SECTOR Imager 6000 (MSD) instrument. Direct binding signals (relative light units, RLU) were analyzed as a function of the antibody concentration and data were fitted with a sigmoidal (four-parameter logistic) dose-response model using GraphPad Prism™ software. […] The signal detected with 100 nM antibody binding to the hGITR expressing cells versus parental cells was recorded as an indication of intensity and specificity of GITR binding.

The target in the next assay is T2, hGITR.mFc (human).
T2 construct: soluble dimeric construct with mouse Fc; also called dimeric human GITR
T2 chain: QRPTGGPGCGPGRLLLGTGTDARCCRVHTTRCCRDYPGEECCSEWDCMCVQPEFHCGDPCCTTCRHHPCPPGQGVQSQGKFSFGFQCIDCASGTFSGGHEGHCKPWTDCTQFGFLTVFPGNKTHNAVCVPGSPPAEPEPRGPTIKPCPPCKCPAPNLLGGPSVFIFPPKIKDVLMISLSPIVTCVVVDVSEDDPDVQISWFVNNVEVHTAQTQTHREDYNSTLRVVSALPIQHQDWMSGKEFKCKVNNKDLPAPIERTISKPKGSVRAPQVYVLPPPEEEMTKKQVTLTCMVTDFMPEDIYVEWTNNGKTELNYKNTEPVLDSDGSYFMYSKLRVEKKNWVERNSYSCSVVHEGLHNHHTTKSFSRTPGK
The assay is described as follows: SPR 37C, mAb capture. Here is the method:
(§1) (Table 3). […] GITR proteins were injected over the sensor surface at a flow rate of 30 μL/minute. All Biacore binding studies were performed in a buffer composed of 0.01M HEPES pH 7.4, 0.15M NaCl, 3 mM EDTA, 0.05% v/v Surfactant P20 (HBS-ET running buffer). Antibody-reagent association was monitored for 4 minutes while dissociation in HBS-ET running buffer (10 mM HEPES, 150 mM NaCl, 3 mM EDTA, 0.05% (v/v) Surfactant P20, pH 7.4) was monitored for 10 minutes. Kinetic association (kₐ) and dissociation (kd) rate constants were determined by fitting the real-time sensorgrams to a 1:1 binding model using Scrubber 2.0c curve fitting software. Binding dissociation equilibrium constants (KD) and dissociative half-lives (t ½) were calculated from the kinetic rate constants as: KD [M]=kd/kₐ; and t_{1/2}(min)=(ln 2/(60*kd). Results are summarized in Table 3.

Another assay concerns the target T3, mfGITR.mmh (Macaca fasicularis).
T3 construct: soluble monomeric construct; also called Macaca fasicularis (mf) GITR.mmh; cynomolgus GITR protein
T3 chain: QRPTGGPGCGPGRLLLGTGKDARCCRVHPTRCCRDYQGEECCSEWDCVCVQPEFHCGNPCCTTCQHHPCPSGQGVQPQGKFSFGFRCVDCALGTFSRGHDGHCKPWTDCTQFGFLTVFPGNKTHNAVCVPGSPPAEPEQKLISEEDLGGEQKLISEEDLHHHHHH
The assay can be described thus: SPR 37C, mAb capture. Here is the method: as §1

The next assay concerns the target T4, hGITR.mmh (human).
T4 construct: soluble monomeric construct; also called human (h) GITR.mmh; monomeric human GITR
T4 chain: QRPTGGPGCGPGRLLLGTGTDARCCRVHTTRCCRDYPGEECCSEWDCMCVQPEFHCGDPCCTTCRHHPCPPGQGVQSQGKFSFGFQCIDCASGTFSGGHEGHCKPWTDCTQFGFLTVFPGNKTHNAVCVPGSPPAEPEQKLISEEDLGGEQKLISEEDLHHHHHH
The assay can be described thus: SPR 37C, mAb capture. On the procedure:
as §1

Assay [2] deals with T1, human GITR (amino acids M1-V241, NCBI …). The assay can be described thus: cell-based or functional assay.

B1: H1H14495P (antibody, human IgG1, V domains shown)
VH: QVQLVESGGGAVQPGTSLRLSCAASGFTFSSFGMHWVRQAPGKGLEWVSVIWYEGSNKYYADSVKGRFTISRDNSRNTLSLQMDSLRVEDTAVYYCARGGELGVNYYYDMDVWGQGTTVTVSS
VL: DIQMTQSPSSLSASVGDRVTITCRASQDIKNDLGWFQQKAGKAPKRLFYATSSLQSGVPSRFSGSGSGTEFTLTISSLQPEDFATYYCLQVHSYPRTFGQGTKVEIK
notes: human IgG1 (H1H)
As to B1, in assay [1], the “Average Signal (RLU) at 100 nM” value is 6470 RLU and it took 0.43 nM to reach a half-maximal effect (EC50). In the assay with hGITR.mFc, this molecule gave a Kd of 0.0968 nM, a koff of 0.00011 s⁻¹, a kon of 1.14e+06 M⁻¹ s⁻¹ and a t½ of 105 min. In the assay with mfGITR.mmh, this molecule registered a Kd of 24.5 nM, a koff of 0.00723 s⁻¹, a kon of 296000 M⁻¹ s⁻¹ and a t½ of 1.6 min. In the assay with hGITR.mmh, binding was put at a Kd of 2.45 nM, the koff amounted to 0.00127 s⁻¹, the kon was found to be 517000 M⁻¹ s⁻¹ and the t½ came out at 9.1 min. Besides, in assay [2], the “% Activation, NF-kB-Luc, non-anchored” value was 30%; the “% Blocking, NF-kB-Luc, non-anchored” value is 80%; the “EC50, hGITR activation, NF-kB-Luc, non-anchored” value (from here on “EC50 … non-anchored”) was 1.3 nM; the “IC50, blocking of hGITRL stimulation, NF-kB-Luc, non-anchored” value (from here on “IC50, blocking … non-anchored”) turned out to be 0.7 nM.

B2: H1H14503P (antibody, human IgG1, V domains shown)
VH: QVQLVESGGGVVQPGRSLRLSCEASGFTFSNYGFHWVRQAPGKGLDWVAVIWYAGSNKFYVDSVQGRFTISRDNSKQILFLQMNSLRAEDSAVYYCVRGGILGIDYYSGMDVWGQGTTVTVSS
VL: AIQMTQSPSSLSASVGDRVTITCRASQDIRNDLGWYQQRPGKAPKFLIYSTSSLQSGVPSRFSGSGSGTDFILTISSLQPEDFATYYCLQSHNYPWTFGHGTKVEIK
notes: human IgG1 (H1H)
As to B2, in assay [1], the “Average Signal (RLU) at 100 nM” value was 5880 RLU and the EC50 turned out to be 0.21 nM. Besides, in the assay with hGITR.mFc, the affinity, expressed as Kd, was 0.137 nM; the koff was determined as 0.000154 s⁻¹; the kon is 1.12e+06 M⁻¹ s⁻¹; the t½ is 75 min. Moreover, in the assay with mfGITR.mmh, binding was characterised by a dissociation constant (Kd) of 20.9 nM, the koff was determined as 0.0056 s⁻¹, the kon came to 268000 M⁻¹ s⁻¹ and the t½ came to 2.1 min. In the assay with hGITR.mmh, this molecule yielded an equilibrium dissociation constant (Kd) of 1.39 nM, a koff of 0.000739 s⁻¹, a kon of 532000 M⁻¹ s⁻¹ and a t½ of 15.6 min. In assay [2], the “% Activation, NF-kB-Luc, non-anchored” value is 50%; the “% Blocking, NF-kB-Luc, non-anchored” value came to 90%; the “EC50 … non-anchored” value is 1.4 nM; the “IC50, blocking … non-anchored” value is 0.6 nM.

B3: H1H14474P (antibody, human IgG1, V domains shown)
VH: QVQLVESGGGVVQPGRSLRLSCAASGFTFSSYGMDWVRQAPGKGLEWVAVIWYPGSNKYYADSVKGRFTVSRDNSKNTLYLQMNSLRAEDTAVYYCARDGELGLDYYSGMDVWGQGTTVTVSS
VL: DIQMTQSPSSLSASVGDRVTITCRASQGIRNDLNWYQQKPGKAPKRLINGASSLQSGVPSRFSGSGSGTEFTLTISSLQPEDFATYYCLQLNSYPRTFGQGTKVEIK
notes: human IgG1 (H1H)
On to B3, for which, in assay [1], the “Average Signal (RLU) at 100 nM” value amounted to 6230 RLU and the EC50 came out at 0.28 nM. In the assay with hGITR.mFc, this molecule yielded a Kd of 0.107 nM, a koff of 0.00013 s⁻¹, a kon of 1.21e+06 M⁻¹ s⁻¹ and a t½ of 89.2 min. For the same molecule, in the assay with mfGITR.mmh, binding was put at a Kd of 28 nM, the koff was determined as 0.00951 s⁻¹, the kon was 339000 M⁻¹ s⁻¹ and the t½ was 1.2 min. Moreover, in the assay with hGITR.mmh, the affinity, expressed as Kd, was 1.96 nM; the koff amounted to 0.00116 s⁻¹; the kon was determined as 591000 M⁻¹ s⁻¹; the t½ was found to be 9.9 min. In assay [2], the “% Activation, NF-kB-Luc, non-anchored” value came to 30%; the “% Blocking, NF-kB-Luc, non-anchored” value was 80%; the “EC50 … non-anchored” value stood at 1.2 nM; the “IC50, blocking … non-anchored” value stood at 0.8 nM.

B4: H1H14523P (antibody, human IgG1, V domains shown)
VH: QVQLVESGGGVVQPGRSLRLSCEASGFTFSSYGMHWVRQAPGKGLEWVAVIWYSESNKYYTDSMKGRLTISRDNSKNTLYLQMNSLRAEDTAVYYCARGGLLGKYYYYGMDVWGQGTTVTVSS
VL: DIQMTQSPSSLSASVGDRVIITCRASQDIRNDLGWYQQKPGKAPKRLIYAASSLQSGVPSRFSGSGSGTEFTLTISSLQPEDFATFYCLQLNSYPYTFGQGTKLEIK
notes: human IgG1 (H1H)
On to B4, for which, in assay [1], the “Average Signal (RLU) at 100 nM” value was found to be 6350 RLU and a half-maximal response (EC50) required 0.4 nM. In the assay with hGITR.mFc, this molecule yielded a Kd of 0.216 nM, a koff of 0.00012 s⁻¹, a kon of 555000 M⁻¹ s⁻¹ and a t½ of 96.3 min. Moreover, in the assay with mfGITR.mmh, the Kd came out at 88.5 nM, the koff is 0.0109 s⁻¹, the kon worked out at 123000 M⁻¹ s⁻¹ and the t½ turned out to be 1.1 min. Moreover, in the assay with hGITR.mmh, the Kd was 8.63 nM, the koff came out at 0.00186 s⁻¹, the kon turned out to be 216000 M⁻¹ s⁻¹ and the t½ amounted to 6.2 min. In assay [2], the “% Activation, NF-kB-Luc, non-anchored” value was 40%; the “% Blocking, NF-kB-Luc, non-anchored” value was determined as 70%; the “EC50 … non-anchored” value stood at 2.5 nM; the “IC50, blocking … non-anchored” value was 0.9 nM.

B5: H1H14524P (antibody, human IgG1, V domains shown)
VH: QVQLVESGGGVAQPGRSLSLSCAASGFTFSDYGMHWVRQAPGKGLEWVAVIWYAGSNKYYADSVKDRFTISRDNSKNTLYLQMRSLRVEDTAVYYCARGGELRLDYYSGLDVWGQGTTVTVSS
VL: DIQMTQSPSSLSASVGDRVTVTCRASQGIRSDLGWYQQKPGKAPKRLIYAASSFQSGVPSRFSGSGSGTEFTLTISSLHPEDFATYYCLQSNNYPWTFGQGTKVEIK
notes: human IgG1 (H1H)
As to B5, in assay [1], the “Average Signal (RLU) at 100 nM” value came to 5740 RLU and the response was half-maximal at 0.21 nM (EC50). In addition, in the assay with hGITR.mFc, the Kd worked out at 0.146 nM, the koff is 0.000135 s⁻¹, the kon was 922000 M⁻¹ s⁻¹ and the t½ was 85.6 min. Besides, in the assay with mfGITR.mmh, the Kd was 158 nM, the koff came out at 0.0189 s⁻¹, the kon turned out to be 120000 M⁻¹ s⁻¹ and the t½ worked out at 0.6 min. Further, in the assay with hGITR.mmh, the Kd is 3.62 nM, the koff was determined as 0.00147 s⁻¹, the kon is 405000 M⁻¹ s⁻¹ and the t½ came to 7.9 min. Moreover, in assay [2], the “% Activation, NF-kB-Luc, non-anchored” value came out at 40%; the “% Blocking, NF-kB-Luc, non-anchored” value turned out to be 80%; the “EC50 … non-anchored” value was found to be 2.2 nM; the “IC50, blocking … non-anchored” value worked out at 0.7 nM.

B6: H4H14530P (antibody, human IgG4, V domains shown)
VH: QLQLQESGPGLVKPSETLSLTCTVSGGSISSTNHYWGWIRQPPGKGLEWIGNVYYIGNAYYNPSLKTGVTFSVDTSKNQFSLNLRSVTAADTAMYYCARLSNWNFLDLWGQGTLVTVSS
VL: EIVMTQSPATLSVSPGERATLSCRASQSISSNLAWYQQKPGQAPRLLIYGASTRATGIPARFSGSGSGTEFTLTISSLQSEDFAVYYCQQFNNWLSFGGGTKVEIK
notes: human IgG4 (H4H)
As for B6, in assay [1], the “Average Signal (RLU) at 100 nM” value amounted to 4200 RLU and the EC50 stood at 85 nM. In the assay with hGITR.mFc, the Kd was 0.63 nM, the dissociation rate constant (koff) stood at 0.000185 s⁻¹, the kon is 293000 M⁻¹ s⁻¹ and the t½ amounted to 62.6 min. Besides, in the assay with mfGITR.mmh, the Kd is 2.55 nM, the koff was 0.000611 s⁻¹, the kon was 240000 M⁻¹ s⁻¹ and the t½ came out at 18.9 min. In the assay with hGITR.mmh, binding was characterised by a dissociation constant (Kd) of 5.06 nM, the koff is 0.00138 s⁻¹, the kon worked out at 272000 M⁻¹ s⁻¹ and the t½ turned out to be 8.4 min.
